What was measured:
[1] = biological target: rattus norvegicus Unc5D residues 32-307 (rUnc5D^IgIgTSP) (rattus norvegicus) (UniProt F1LW30); experiment: crystal structure
[2] = biological target: hGPC3^core(R355A/R358A) (human) (UniProt P51654); experiment: native MS
Chain of hGPC3^core(R355A/R358A) (human) (P51654 32-483 R355A/R358A): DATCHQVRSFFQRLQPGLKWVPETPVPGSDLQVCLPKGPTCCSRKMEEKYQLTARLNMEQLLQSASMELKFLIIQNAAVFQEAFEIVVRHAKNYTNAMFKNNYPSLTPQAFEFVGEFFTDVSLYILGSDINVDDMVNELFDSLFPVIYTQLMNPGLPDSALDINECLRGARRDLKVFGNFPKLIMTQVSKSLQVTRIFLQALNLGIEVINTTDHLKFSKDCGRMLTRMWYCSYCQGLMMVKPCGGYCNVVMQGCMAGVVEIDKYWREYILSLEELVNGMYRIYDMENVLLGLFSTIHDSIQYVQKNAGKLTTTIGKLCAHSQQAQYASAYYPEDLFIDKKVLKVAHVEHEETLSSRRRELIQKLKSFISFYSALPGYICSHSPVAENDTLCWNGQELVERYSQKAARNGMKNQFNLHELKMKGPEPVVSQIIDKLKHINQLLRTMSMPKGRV

rattus norvegicus Unc5D residues 32-307 (rUnc5D^IgIgTSP) (from UniProt F1LW30 32-307) (domain or fragment)
stoichiometry N [1]: 4 | stoichiometry N (Unc5D per GPC3 (1:1)) [2]: 1 | stoichiometry N (Unc5D per GPC3 (2:2)) [2]: 1 | stoichiometry N (Unc5D per GPC3 (4:4)) [2]: 1
